Test results published in US20230295310A1 (ABCELLERA BIOLOGICS, published 2023).
Numbering of substitutions follows the chain as printed.

B1: mAb 130 (antibody, V domains shown)
VH: EVQLVESGGGLVKTGGSLRLSCVASGFSFKKAWMNWVRQAPGKGLEWVGRIKRNSDGGATDYAAPVKDRFTLSRDDSKNTLYLQMNSLKTEDTAVYYCTTLDSSSWYVGYYYMDVWGKGTTVTVSS
VL: DIHMTQSPSSVSASLGDRVTFTCRASQDINNWLAWYQQRPGKAPKLLIYTASSLQSGVPSRFSGSGSGTDFTLTISSLQPEDFATYYCQQAHSLPITFGQGTRLGIK
notes: VH and VL only
B2: mAb 120 (antibody, V domains shown)
VH: B1 VH with S55T, A59T, T60A, D68G, N79K, Y82F, W106Y
VL: B1 VL with H3Q, L15V, F21I, R39K, S76G, G105E
notes: VH and VL only
B3: mAb 165 (antibody, V domains shown)
VH: B1 VH with S55T, A59T, T60A, D68G, N79R, W106R
VL: B1 VL with H3Q, L15V, T20I, F21I, R39K, A43V, S76G, G105E
notes: VH and VL only
B4: mAb 166 (antibody, V domains shown)
VH: B1 VH with K43R, S55T, A59T, D68G, T80M, W106L
VL: B1 VL with H3Q, L15V, F21I, R39K, Y87F, G105E, K107T
notes: VH and VL only
B5: mAb 155 (antibody, V domains shown)
VH: B1 VH with S55T, A59T, T60A, D68G, N79K, Y82F, W106Y
VL: B1 VL with H3Q, L15V, T20I, F21I, R39K, S76G, T97S, G105D
notes: VH and VL only
B6: mAb 116 (antibody, V domains shown)
VH: B1 VH with A59T, D68G
VL: B1 VL with H3Q, S9F, L15V, F21I, R39K, L46I, G105E
notes: VH and VL only
B7: mAb 169 (antibody, V domains shown)
VH: B1 VH with S55T, A59T, T60A, D68G, N79K, Y82F, W106Y
VL: B1 VL with H3Q, L15V, T20I, F21I, R39K, T72I, S76G, G105E
notes: VH and VL only
B8: mAb 112 (antibody, V domains shown)
VH: B1 VH with L18H, A59T, D68G, T71I
VL: B1 VL with H3Q, L15V, F21I, R39K, L46I, S53N, Y87F, G105E
notes: VH and VL only
B9: mAb 131 (antibody, V domains shown)
VH: B1 VH with L20I, S55T, A59T, T60I, D68G, T71S, Y82F, Y97F, W106Y
VL: B1 VL with L15V, F21I, R39K, Y87F
notes: VH and VL only
B10: mAb 157 (antibody, V domains shown)
VH: B1 VH with N54T, S55A, D68G
VL: B1 VL with S7A, L15V, R39K
notes: VH and VL only
B11: mAb 113 (antibody, V domains shown)
VH: B1 VH with S55T, A59T, D68G
VL: B1 VL with H3Q, L15V, F21I, R39K, L46I, G105E
notes: VH and VL only
B12: mAb 122 (antibody, V domains shown)
VH: B1 VH with S55T, A59T, T60A, D68G, N79K, W106R
VL: B1 VL with H3Q, L15V, T20I, F21I, R39K, A43V, S76G, G105E
notes: VH and VL only
B13: mAb 164 (antibody, V domains shown)
VH: B1 VH with S55T, A59T, T60A, D68G, N79K, Y82F, W106Y
VL: B1 VL with H3Q, L15V, F21I, N30K, R39K, S76G, G105E
notes: VH and VL only
B14: mAb 156 (antibody, V domains shown)
VH: B1 VH with S55T, A59T, T60A, D68G, N79K, Y82F, W106Y
VL: B1 VL with H3Q, L15V, T20I, F21I, R39K, P40A, S76G, G105E
notes: VH and VL only
B15: mAb 125 (antibody, V domains shown)
VH: B1 VH with S55T, A59T, T60A, D68G, N79K, W106R
VL: B1 VL with H3Q, L15V, T20I, F21I, R39K, A43V, S76G, S77T, G105D
notes: VH and VL only
B16: mAb 133 (antibody, V domains shown)
VH: B1 VH with N35S, S55T, A59T, T60A, D68G, N79K, Y82F, T93S, T99V, W106Y
VL: B1 VL with H3Q, L15V, T20S, F21I, R39K, S76G, G105E
notes: VH and VL only
B17: mAb 114 (antibody, V domains shown)
VH: B1 VH with S55T, A59P, T60A, D68G, N79K
VL: B1 VL with H3Q, L15V, T20I, F21I, Q37L, T50A, S76G, G105E, K107Q
notes: VH and VL only
B18: mAb 163 (antibody, V domains shown)
VH: B1 VH with A40V, S55T, A59T, T60A, D68G, N79K, Y82F, W106Y
VL: B1 VL with H3Q, L15V, T20I, F21I, R39K, S76G, G105E
notes: VH and VL only
B19: mAb 115 (antibody, V domains shown)
VH: B1 VH with L18H, A59T, D68G, T71I
VL: B1 VL with H3Q, L15V, F21I, R39K, L46I, S53N, Y87F, S93G, G105E
notes: VH and VL only
B20: mAb 117 (antibody, V domains shown)
VH: B1 VH with S55T, A59T, D68G, W106L
VL: B1 VL with H3Q, L15V, F21I, R39K, G105E
notes: VH and VL only
B21: mAb 42 (antibody, V domains shown)
VH: QAQLVQSGSELKKPGASVKVSCKASGYTFTKHSMNWVRQAPGQGLEWMGWINTNTGNPTYAQGFTGRFVFSLDTSVTTAYLQISSLKAEDTAVYYCAREGDYDFWSGFFNFDYWGQGTLVTVSS
VL: DIQMTQSPSSLSASVGDRVTITCRASQGIRNDLGWYQQKPGKAPKRLIYAASSLQSGVPSRFSGSGSGAEFTLTISSLQPEDFATYYCLQHNSYPRTFGQGTKVEIK
notes: VH and VL only
B22: mAb 71 (antibody, V domains shown)
VH: QVQLVQSGAEVRKPGASVKVSCKASGYTFTKYDVNWVRQAPGQGLEWMGWMNSNNGNIGYAQKFQGRVTMTRKTSISTAYMELSSLRSEDTAVYYCAREGHYDFWRGFYNFDYWGQGTLVTVSS
VL: B21 VL with G28D, R30K, A69T, S93F, R96I, K103R, V104L
notes: VH and VL only
B23: mAb 53 (antibody, V domains shown)
VH: QVQLVQSGAEVKKPGASVKVSCKASGYTFTSYDINWVRQATGQGLEWMGWMNPKSGKTGYAQKFQGRITMTRNTPISTVYMDLSSLRSEDTAVYYCAREGHYDFWTGYYSFDYWGQGTLVTVSS
VL: B21 VL with K39T, A69T, N92Y, R96Y, V104L
notes: VH and VL only
B24: mAb 67 (antibody, V domains shown)
VH: EVQLVESGGDLVQPGRSLRLSCAASGFTFDDCVIHWVRQAPGKGLEWVSGITWNSGRIGYADSVKGRFTISRDNAKNSLYLQMNSLRVEDTALYYCAKEGNYDFWSTYYRGYFDLWGRGTLVTVSS
VL: B21 VL with K42I, S56G, S60L, A69T, R96Y, V104L
notes: VH and VL only
B25: mAb 55 (antibody, V domains shown)
VH: QVQLEQSGAEVKKPGASVKVSCKTSGYIFANYDINWVRQATGQGLEWMGWMNPKSGKAGYAQKFQGRVTMTSNTPINTAYMELSSLRSEDTAVYYCAREGHYDFWRGFYSFDYWGQGILVTVSS
VL: B21 VL with A50T, A69T, Y87F, H91Y, S93T, R96Y, V104L
notes: VH and VL only
B26: mAb 74 (antibody, V domains shown)
VH: EVQLVESGGGLVQPGRSLRLSCAASGFTFADYVMHWVRQAPGKGLEWVSGINWNNARIGYVGSVKGRFTISRDNAKNSLYLQMTSLRVEDTALYHCVREGNFDFWSAYYRGFLDLWGRGTLVTVSS
VL: B21 VL with N31S, A50G, S56G, A69T, R96Y, V104L
notes: VH and VL only
B27: mAb 73 (antibody, V domains shown)
VH: EVELVESGGGLVQPGRSLRLSCAASGFTFDDKVMHWVRQAPGKGLEWVSCINWNSGHIGYADSVKGRFTISRDNARTSLYLQMNSLRPEDTALYYCVREGNYDFWSGYYRGFFDLWGRGTLVTVSS
VL: B21 VL with S56G, A69T, N92T, R96F, V104L
notes: VH and VL only
B28: mAb 44 (antibody, V domains shown)
VH: B21 VH with K31R, S33A, T77S, Q82K, A97V
VL: B21 VL with Y36F, K45T
notes: VH and VL only
B29: mAb 43 (antibody, V domains shown)
VH: B21 VH with T59M
VL: B21 VL
notes: VH and VL only
B30: mAb 50 (antibody, V domains shown)
VH: B21 VH with K31R, S33A
VL: B21 VL with Y36F, K45T
notes: VH and VL only
B31: mAb 47 (antibody, V domains shown)
VH: B21 VH
VL: B21 VL with A69T
notes: VH and VL only
B32: mAb 46 (antibody, V domains shown)
VH: EGQLVESGGGLVQPGGSLRLSCVASGFTLSSYTLNWVRQAPGKGLEWVSYISSTSRTIYYSDSVKGRFTISRDNAKNSLYLQMNSLRDEDTALYYCAREDYYDSSGFDYWGQGTLVTVSS
VL: AIRMTQSPSSFSASTGDRVTITCRASQGISSYLAWYQQKPGKAPKLLIYTASTLQSGVPSRFSGSGSGTDFTLTIRSLQSEDFATYYCQQYYSYPRTFGQGTKVEIK
notes: VH and VL only
B33: mAb 51 (antibody, V domains shown)
VH: B32 VH with G2V, V23A, L34M, T54S, T69S, Y109N
VL: B32 VL
notes: VH and VL only
B34: mAb 320 (antibody, V domains shown)
VH: QVQLVESGGGVVQPGRSLRLSCAASGFTFRSYGMHWVRQAPGKGLEWVAIIWYDGSKKYYADSVKGRFTISRDNSKNILYLQMNSLRAEDTAVYYCARQEFNWNDGGYYYMDVWGKGTTVTVSS
VL: DIQLTQSPSFLSASVGDRVTITCRASQGISSYLDWCQQKPGKAPKLLIYAASTLQSGVPSRFSGSGSGTEFTLTISSLQPEDFATYYCQQLDNYPPTFGGGTKVEIK
notes: VH and VL only
B35: mAb 119 (antibody, V domains shown)
VH: EVQLVESGGGLVQPGRSLRLSCAASGFTFDDYTMHWVRQAPGKGLEWVSGISWNSGSIGYADSVKGRFTISRDNAKNSLYLQMNSLRAEDTALYYCSKDSSGYGYYLNYSLDVWGKGTTVTVSS
VL: EIVMTQSPATLSVSPGERATLSCRASQSVSNLAWYQQKPGQAPRLLIYGASTRATGIPARFSGSGSGTEFTLTISSLQSEDFAVYYCQQYNNWPHFGQGTRLQIK
notes: VH and VL only

What follows are binders tested against T1, human CD3e/g (human, UniProt P07766 23-126; P09693 23-116) (assay: SPR (Carterra LSA), mAb on chip).
T1 construct: Bought soluble protein; also called hCD3e/g; human CD3e/g (Acro CDD-C52W4)
T1 sequence (P07766 23-126, chain 1 of 2): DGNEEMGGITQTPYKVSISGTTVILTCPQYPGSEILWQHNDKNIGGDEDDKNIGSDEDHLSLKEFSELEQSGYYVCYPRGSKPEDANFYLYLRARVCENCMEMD
T1 sequence (P09693 23-116, chain 2 of 2): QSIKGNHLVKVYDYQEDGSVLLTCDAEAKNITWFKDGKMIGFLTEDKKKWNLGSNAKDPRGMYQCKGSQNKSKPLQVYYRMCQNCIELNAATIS
Method in brief: (§1)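 Purified mAbs amine-coupled (EDC/S-NHS) at 10 μg/mL in 10 mM NaOAc pH 4.25 onto an HC-30M chip, with benchmark and negative-control mAbs; analyte flowed over the array. Double-referenced sensorgrams fitted globally to a 1:1 Langmuir model for ka, kd and KD.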

Row | Kd | Binder
1 | 6.07 nM | B1
2 | 12.1 nM | B2
3 | 10.6 nM | B3
4 | 12.5 nM | B4
5 | 7.07 nM | B5
6 | 24.1 nM | B6
7 | 12.6 nM | B7
8 | 14.8 nM | B8
9 | 7.45 nM | B9
10 | 12.2 nM | B10
11 | 28.8 nM | B11
12 | 13 nM | B12
13 | 15 nM | B13
14 | 7 nM | B14
15 | 13.8 nM | B15
16 | 6.64 nM | B16
17 | 18.9 nM | B17

Row | Kd | Binder
18 | 8.63 nM | B18
19 | 15.7 nM | B19
20 | 9.84 nM | B20
21 | 19.4 nM | B21
22 | 113 nM | B22
23 | 258 nM | B23
24 | 18.6 nM | B24
25 | 85.7 nM | B25
26 | 9.83 nM | B26
27 | 16.2 nM | B27
28 | 19.1 nM | B28
29 | 21.7 nM | B29
30 | 34.3 nM | B30
31 | 20.1 nM | B31
32 | 98.4 nM | B32
33 | 171 nM | B33
34 | 0.69 nM | B34

These binders were tested against T2, human CD3e/d (human, UniProt P07766 23-126; P04234 22-105) (assay: SPR (Carterra LSA), mAb on chip).
T2 construct: Bought soluble protein; also called hCD3e/d; human CD3/ed (Sino CT038-H2508H)
T2 sequence (P07766 23-126, chain 1 of 2): as the sequence (P07766 23-126, chain 1 of 2) above
T2 sequence (P04234 22-105, chain 2 of 2): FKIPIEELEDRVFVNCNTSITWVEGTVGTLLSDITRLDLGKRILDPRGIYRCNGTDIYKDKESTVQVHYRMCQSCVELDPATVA
Method in brief: as §1

Row | Kd | Binder
35 | 21.7 nM | B1
36 | 44.4 nM | B2
37 | 40.4 nM | B3
38 | 47.3 nM | B4
39 | 46.2 nM | B5
40 | 104 nM | B6
41 | 73.8 nM | B7
42 | 56.9 nM | B8
43 | 32.1 nM | B9
44 | 53.1 nM | B10
45 | 107 nM | B11
46 | 34.2 nM | B12
47 | 77 nM | B13
48 | 47.7 nM | B14
49 | 36 nM | B15
50 | 27.2 nM | B16
51 | 65.8 nM | B17
52 | 42 nM | B18
53 | 63.8 nM | B19
54 | 40.6 nM | B20
55 | 240 nM | B32
56 | 351 nM | B33
57 | 37.2 nM | B35
